The target of experiment [1] is human plasma fibronectin (human) (UniProt P02751). The experiment in a line: ELISA on coated antigen, background subtracted. (An ELISA detects its analyte on a solid surface through an enzyme-linked reagent.)
Experiment [2] deals with large isoform of tenascin-C (UniProt P24821). The experiment in a line: ELISA on coated antigen, background subtracted.
Sequence of large isoform of tenascin-C (P24821 23-2201): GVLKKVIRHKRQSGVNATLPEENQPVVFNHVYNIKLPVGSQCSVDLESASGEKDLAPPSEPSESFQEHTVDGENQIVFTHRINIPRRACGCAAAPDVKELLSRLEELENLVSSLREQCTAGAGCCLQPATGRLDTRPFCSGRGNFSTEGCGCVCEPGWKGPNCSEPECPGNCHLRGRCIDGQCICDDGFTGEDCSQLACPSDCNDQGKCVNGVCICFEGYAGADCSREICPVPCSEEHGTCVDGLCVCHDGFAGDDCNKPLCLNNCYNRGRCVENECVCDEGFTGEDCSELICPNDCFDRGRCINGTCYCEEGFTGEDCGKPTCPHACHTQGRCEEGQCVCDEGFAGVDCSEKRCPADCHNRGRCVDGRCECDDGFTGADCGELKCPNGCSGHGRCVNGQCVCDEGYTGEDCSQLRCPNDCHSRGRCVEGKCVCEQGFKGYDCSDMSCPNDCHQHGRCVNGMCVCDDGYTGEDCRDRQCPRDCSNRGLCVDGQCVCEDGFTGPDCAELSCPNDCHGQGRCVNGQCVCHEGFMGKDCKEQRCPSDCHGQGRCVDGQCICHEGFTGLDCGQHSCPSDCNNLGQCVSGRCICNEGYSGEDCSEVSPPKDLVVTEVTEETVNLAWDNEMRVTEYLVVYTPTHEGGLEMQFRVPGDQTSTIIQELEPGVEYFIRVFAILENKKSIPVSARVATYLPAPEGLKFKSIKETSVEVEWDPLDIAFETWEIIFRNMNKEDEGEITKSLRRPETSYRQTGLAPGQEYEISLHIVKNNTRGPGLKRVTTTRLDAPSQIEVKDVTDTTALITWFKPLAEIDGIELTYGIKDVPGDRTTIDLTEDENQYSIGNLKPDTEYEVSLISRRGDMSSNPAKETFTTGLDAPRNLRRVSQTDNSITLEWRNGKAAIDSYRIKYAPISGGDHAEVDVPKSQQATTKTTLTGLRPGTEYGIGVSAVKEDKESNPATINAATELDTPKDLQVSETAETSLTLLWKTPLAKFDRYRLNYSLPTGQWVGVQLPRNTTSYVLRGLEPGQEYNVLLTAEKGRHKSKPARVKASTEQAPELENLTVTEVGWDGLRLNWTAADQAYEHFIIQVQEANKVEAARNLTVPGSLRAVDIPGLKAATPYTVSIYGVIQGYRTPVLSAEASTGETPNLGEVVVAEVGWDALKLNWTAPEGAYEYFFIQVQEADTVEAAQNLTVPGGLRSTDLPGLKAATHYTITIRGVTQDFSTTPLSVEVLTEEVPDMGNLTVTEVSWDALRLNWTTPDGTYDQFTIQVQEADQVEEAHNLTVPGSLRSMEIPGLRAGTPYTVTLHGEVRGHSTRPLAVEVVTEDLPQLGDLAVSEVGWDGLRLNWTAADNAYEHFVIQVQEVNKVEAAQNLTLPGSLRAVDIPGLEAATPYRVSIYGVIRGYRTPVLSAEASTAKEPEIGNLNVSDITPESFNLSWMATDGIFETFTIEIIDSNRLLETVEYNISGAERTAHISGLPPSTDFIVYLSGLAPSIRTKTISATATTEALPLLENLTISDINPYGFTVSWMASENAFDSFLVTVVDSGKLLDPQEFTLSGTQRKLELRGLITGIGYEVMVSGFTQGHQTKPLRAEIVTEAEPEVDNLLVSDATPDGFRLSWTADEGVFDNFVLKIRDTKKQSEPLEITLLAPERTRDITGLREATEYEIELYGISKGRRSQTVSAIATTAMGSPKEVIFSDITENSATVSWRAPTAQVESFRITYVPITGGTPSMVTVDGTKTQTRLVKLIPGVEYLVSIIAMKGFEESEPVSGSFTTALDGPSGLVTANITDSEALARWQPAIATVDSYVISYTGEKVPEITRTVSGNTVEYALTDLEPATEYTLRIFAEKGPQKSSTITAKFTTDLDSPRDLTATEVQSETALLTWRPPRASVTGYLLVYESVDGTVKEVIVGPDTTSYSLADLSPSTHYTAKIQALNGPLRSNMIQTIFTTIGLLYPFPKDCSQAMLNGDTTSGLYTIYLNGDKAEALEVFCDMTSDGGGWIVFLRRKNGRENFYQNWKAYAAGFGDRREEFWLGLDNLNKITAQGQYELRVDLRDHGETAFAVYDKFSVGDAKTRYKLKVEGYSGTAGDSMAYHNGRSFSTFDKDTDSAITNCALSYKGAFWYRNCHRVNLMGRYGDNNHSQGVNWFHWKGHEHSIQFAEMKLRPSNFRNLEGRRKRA

B1: scFv CGS-1 (scFv, V domains shown)
VH: QVQLVESGGGLVQPGGSLRLSCAVSGFTFSSYAMSWVRQAPGKGLEWVSAISGSGGSTYYADSVKGRFTISRDNSKNTLYLQMNSLRAEDTAVYYCARSLPKWGQGTLVTVSR
VL: SSELTQDPAVSVALGQTVRITCQGDSLRSYYASWYQQKPGQAPVLVTYGKNNRPSGIPDRFSGSSSGNTASLTITGAQAEDEADYYCNSSPVVLNGVVFGGGTKLTVL
For the molecule B1, the OD at 405 nm in experiment [1] was determined as 0.07 OD 405 nm; in experiment [2], 0.01 OD 405 nm.

Values taken from patent US8703143.
